These results are taken from US20150344570A1 (published 2015).

Test [1] has as its target T1, FcγRIa extracellular domain with C-terminal His tag (human, UniProt P12314 16-292).
T1 construct: extracellular domain; Soluble receptor used as analyte in Biacore; also called FcgRI; FcgRIa
The test is described as follows: SPR Biacore, antibody captured on antigen-peptide chip, FcγR as analyte. For orientation: SPR reads the build-up and loss of mass on a sensor chip optically.

The target of test [2] is T2, FcγRIIb extracellular domain with C-terminal His tag (human, UniProt P31994 43-217).
T2 construct: extracellular domain; Soluble receptor used as analyte in Biacore; also called FcgRIIb; CD32B
T2 sequence (looked up): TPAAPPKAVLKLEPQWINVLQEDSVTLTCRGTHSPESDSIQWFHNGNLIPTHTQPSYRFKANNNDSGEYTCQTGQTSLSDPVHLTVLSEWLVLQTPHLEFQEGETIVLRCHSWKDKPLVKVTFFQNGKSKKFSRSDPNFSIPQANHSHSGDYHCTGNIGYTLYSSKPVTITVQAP
The description is as above.

Test [3] addresses T3, FcγRIIa H (FcgRIIa type H, His at position 131), extracellular domain with C-terminal His tag (human, UniProt P12318 34-217).
T3 construct: extracellular domain; also called 2aH; FcgRIIa H; not shown: His tag at the C terminus
T3 sequence (looked up): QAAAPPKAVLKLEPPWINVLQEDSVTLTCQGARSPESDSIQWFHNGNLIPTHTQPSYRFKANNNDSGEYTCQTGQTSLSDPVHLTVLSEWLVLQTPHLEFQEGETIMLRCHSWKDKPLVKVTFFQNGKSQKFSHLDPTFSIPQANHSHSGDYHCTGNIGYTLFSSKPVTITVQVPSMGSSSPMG
Nature of the test: SPR; He/Con_2aH divided by He/Con_2b (FcγRIIa H binding over FcγRIIb binding).

The target of test [4] is T4, FcγRIIb, extracellular domain with C-terminal His tag (human, UniProt P31994 43-217).
T4 construct: extracellular domain; also called 2b; FcgRIIb; not shown: His tag at the C terminus
T4 sequence (looked up): T2 sequence (looked up)
Nature of the test: SPR (Biacore), relative binding, GpH7-A5/GpH7-B3/GpL16-k0 = 100.

Test [5] concerns the target T3, FcγRIIa H (FcgRIIa type H, His at …). The description is as above.

T1 sequence (P12314 16-292): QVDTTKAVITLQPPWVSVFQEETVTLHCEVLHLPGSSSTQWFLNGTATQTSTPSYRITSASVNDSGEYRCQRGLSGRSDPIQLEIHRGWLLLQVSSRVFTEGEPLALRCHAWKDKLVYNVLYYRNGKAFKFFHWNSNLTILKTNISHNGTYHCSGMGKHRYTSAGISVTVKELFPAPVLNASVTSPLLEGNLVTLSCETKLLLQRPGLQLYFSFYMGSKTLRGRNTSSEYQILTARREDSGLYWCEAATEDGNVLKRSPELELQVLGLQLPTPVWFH

B1: GpH7-A5/GpH7-B3 variant E269_14T/GpL16-k0 (antibody, human IgG1, kappa)
heavy 1: not shown
heavy 2: not shown
light: DIVMTQSPLSLPVTPGEPASISCQASESLVHSNRNTYLHWYLQKPGQSPQLLIYKVSNRFSGVPDRFSGSGSGTDFTLKISRVEAEDVGVYYCSQNTHVPPTFGQGTKVEIERTVAAPSVFIFPPSDEQLKSGTASVVCLLNNFYPREAKVQWKVDNALQSGNSQESVTEQDSKDSTYSLSSTLTLSKADYEKHKVYACEVTHQGLSSPVTKSFNRGEC
notes: Heterodimerized anti-glypican-3 IgG1; mutation in the GpH7-B3 chain only; also called He Ab E269T
Regarding B1, in test [1], the He/Con_1a was 106 relative, GpH7-A5/GpH7-B3/GpL16-k0 = 100. For the same molecule, the He/Con_2b in test [2] was 50.6 relative, GpH7-A5/GpH7-B3/GpL16-k0 = 100.

B2: GpH7-A5/GpH7-B3 variant S267_19Q/GpL16-k0 (antibody, human IgG1, kappa)
heavy 1: not shown
heavy 2: not shown
light: B1 light
notes: He Ab; alteration in one H chain only; also called He Ab
B2: the “He_2aH/2b (IIaH/IIb)” value in test [3] amounted to 0.28 ratio. In addition, in test [4], the He/Con_2b was 218 % of control. In addition, in test [5], the He/Con_2aH was 61.3 % of control.

B3: GpH7-A5/GpH7-B3 variant S267_20W/GpL16-k0 (antibody, human IgG1, kappa)
heavy 1: not shown
heavy 2: not shown
light: B1 light
notes: as for B2
Consider B3, for which, in test [3], the “He_2aH/2b (IIaH/IIb)” value stood at 0.66 ratio. In test [4], the He/Con_2b is 57.2 % of control. In addition, the He/Con_2aH in test [5] was 37.9 % of control.

B4: GpH7-A5/GpH7-B3 variant E269_08L/GpL16-k0 (antibody, human IgG1, kappa)
heavy 1: not shown
heavy 2: not shown
light: B1 light
notes: Heterodimerized anti-glypican-3 IgG1; mutation in the GpH7-B3 chain only; also called He Ab E269L
B4: the He/Con_1a in test [1] is 104 relative, GpH7-A5/GpH7-B3/GpL16-k0 = 100. In test [2], the He/Con_2b was 42.9 relative, GpH7-A5/GpH7-B3/GpL16-k0 = 100.

B5: GpH7-A5/GpH7-B3 variant H268_06M/GpL16-k0 (antibody, human IgG1, kappa)
heavy 1: not shown
heavy 2: not shown
light: B1 light
notes: Heterodimerized anti-glypican-3 IgG1; mutation in the GpH7-B3 chain only; also called He Ab H268M
B5: in test [1], the He/Con_1a was 105 relative, GpH7-A5/GpH7-B3/GpL16-k0 = 100. Further, the He/Con_2b in test [2] is 65.7 relative, GpH7-A5/GpH7-B3/GpL16-k0 = 100.

B6: GpH7-A5/GpH7-B3 variant E269_11K/GpL16-k0 (antibody, human IgG1, kappa)
heavy 1: not shown
heavy 2: not shown
light: B1 light
notes: Heterodimerized anti-glypican-3 IgG1; mutation in the GpH7-B3 chain only; also called He Ab E269K
Take B6: in test [1], the He/Con_1a was 95.2 relative, GpH7-A5/GpH7-B3/GpL16-k0 = 100. The He/Con_2b in test [2] is 17.8 relative, GpH7-A5/GpH7-B3/GpL16-k0 = 100.

B7: GpH7-A5/GpH7-B3 variant V266_16H/GpL16-k0 (antibody, human IgG1, kappa)
heavy 1: not shown
heavy 2: not shown
light: B1 light
notes: as for B2
Consider B7, for which, in test [3], the “He_2aH/2b (IIaH/IIb)” value was found to be 0.37 ratio. The He/Con_2b in test [4] is 57.2 % of control. Besides, the He/Con_2aH in test [5] is 21.2 % of control.

B8: GpH7-A5/GpH7-B3 variant E269_15Y/GpL16-k0 (antibody, human IgG1, kappa)
heavy 1: not shown
heavy 2: not shown
light: B1 light
notes: Heterodimerized anti-glypican-3 IgG1; mutation in the GpH7-B3 chain only; also called He Ab E269Y
As to B8, the He/Con_1a in test [1] is 106 relative, GpH7-A5/GpH7-B3/GpL16-k0 = 100. Also, in test [2], the He/Con_2b was 44.7 relative, GpH7-A5/GpH7-B3/GpL16-k0 = 100.

B9: GpH7-A5/GpH7-B3 variant H268_08L/GpL16-k0 (antibody, human IgG1, kappa)
heavy 1: not shown
heavy 2: not shown
light: B1 light
notes: Heterodimerized anti-glypican-3 IgG1; mutation in the GpH7-B3 chain only; also called He Ab H268L
As for B9, the He/Con_1a in test [1] is 107 relative, GpH7-A5/GpH7-B3/GpL16-k0 = 100. The He/Con_2b in test [2] was 67.8 relative, GpH7-A5/GpH7-B3/GpL16-k0 = 100.

B10: GpH7-A5/GpH7-B3 variant E269_04F/GpL16-k0 (antibody, human IgG1, kappa)
heavy 1: not shown
heavy 2: not shown
light: B1 light
notes: Heterodimerized anti-glypican-3 IgG1; mutation in the GpH7-B3 chain only; also called He Ab E269F
In the case of B10, the He/Con_1a in test [1] was 103 relative, GpH7-A5/GpH7-B3/GpL16-k0 = 100. Besides, the He/Con_2b in test [2] is 45 relative, GpH7-A5/GpH7-B3/GpL16-k0 = 100.

B11: GpH7-A5/GpH7-B3 variant H268_07I/GpL16-k0 (antibody, human IgG1, kappa)
heavy 1: not shown
heavy 2: not shown
light: B1 light
notes: Heterodimerized anti-glypican-3 IgG1; mutation in the GpH7-B3 chain only; also called He Ab H268I
Regarding B11, the He/Con_1a in test [1] was 108 relative, GpH7-A5/GpH7-B3/GpL16-k0 = 100. Besides, the He/Con_2b in test [2] is 88.9 relative, GpH7-A5/GpH7-B3/GpL16-k0 = 100.

B12: GpH7-A5/GpH7-B3 variant S267_05P/GpL16-k0 (antibody, human IgG1, kappa)
heavy 1: not shown
heavy 2: not shown
light: B1 light
notes: Heterodimerized anti-glypican-3 IgG1; mutation in the GpH7-B3 chain only; also called He Ab S267P
For B12, the He/Con_1a in test [1] is 91.8 relative, GpH7-A5/GpH7-B3/GpL16-k0 = 100. Besides, the He/Con_2b in test [2] was 31.5 relative, GpH7-A5/GpH7-B3/GpL16-k0 = 100.

B13: GpH7-A5/GpH7-B3 variant E269_02A/GpL16-k0 (antibody, human IgG1, kappa)
heavy 1: not shown
heavy 2: not shown
light: B1 light
notes: Heterodimerized anti-glypican-3 IgG1; mutation in the GpH7-B3 chain only; also called He Ab E269A
As for B13, the He/Con_1a in test [1] was 104 relative, GpH7-A5/GpH7-B3/GpL16-k0 = 100. Moreover, in test [2], the He/Con_2b is 49.9 relative, GpH7-A5/GpH7-B3/GpL16-k0 = 100.

B14: GpH7-A5/GpH7-B3 variant V266_19Q/GpL16-k0 (antibody, human IgG1, kappa)
heavy 1: not shown
heavy 2: not shown
light: B1 light
notes: as for B2
With B14, the “He_2aH/2b (IIaH/IIb)” value in test [3] stood at 0.52 ratio. For the same molecule, the He/Con_2b in test [4] was 89.2 % of control. In addition, the He/Con_2aH in test [5] is 46.4 % of control.

B15: GpH7-A5/GpH7-B3 variant E269_13S/GpL16-k0 (antibody, human IgG1, kappa)
heavy 1: not shown
heavy 2: not shown
light: B1 light
notes: Heterodimerized anti-glypican-3 IgG1; mutation in the GpH7-B3 chain only; also called He Ab E269S
With B15, the He/Con_1a in test [1] was 103 relative, GpH7-A5/GpH7-B3/GpL16-k0 = 100. Also, the He/Con_2b in test [2] is 47.8 relative, GpH7-A5/GpH7-B3/GpL16-k0 = 100.

B16: GpH7-A5/GpH7-B3 variant V266_20W/GpL16-k0 (antibody, human IgG1, kappa)
heavy 1: not shown
heavy 2: not shown
light: B1 light
notes: as for B2
As for B16, the “He_2aH/2b (IIaH/IIb)” value in test [3] is 0.17 ratio. The He/Con_2b in test [4] was 71.9 % of control. In addition, the He/Con_2aH in test [5] was 12 % of control.
